The values that follow come from patent US7507799.

The target in data set [1] is trk A (autophosphorylation assay of Example 5). Description: cell-based or functional assay.
Data set [2] addresses trk A on trk A-overexpressing PC12 cells. Description: cell-based or functional assay.
A further data set deals with TrkA on 293 cells. The experiment in a line: whole-cell competition against 1 nM 125I-NGF on 293 cells expressing only trk A.
Data set [3] relates to His-tagged cleavage resistant pro-NGF (point mutant, K-R cleavage site at 120,121 mutated to A-A).
The subject of data set [4] is T1, rat BDNF secreted by adenovirus-infected 293T or endothelial cells (proforms of 30 kDa and 28 kDa).
T1 sequence: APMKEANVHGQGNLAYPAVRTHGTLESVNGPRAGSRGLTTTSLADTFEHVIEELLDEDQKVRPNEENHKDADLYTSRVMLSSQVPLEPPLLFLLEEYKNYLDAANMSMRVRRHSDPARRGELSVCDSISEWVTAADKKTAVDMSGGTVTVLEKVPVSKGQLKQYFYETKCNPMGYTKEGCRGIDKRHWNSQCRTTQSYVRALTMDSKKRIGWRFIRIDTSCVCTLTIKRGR

Data set [5] concerns the target p75 on vascular smooth muscle cell line (p75Ts-Tag-SMC). Description: cell-based or functional assay.
For another data set, the target named is p75NTR on A875 cells (UniProt P08138). The experiment in a line: whole-cell competition against 1 nM 125I-NGF on cells expressing only p75 (A875 cells).
p75NTR on A875 cells, sequence (P08138 29-427): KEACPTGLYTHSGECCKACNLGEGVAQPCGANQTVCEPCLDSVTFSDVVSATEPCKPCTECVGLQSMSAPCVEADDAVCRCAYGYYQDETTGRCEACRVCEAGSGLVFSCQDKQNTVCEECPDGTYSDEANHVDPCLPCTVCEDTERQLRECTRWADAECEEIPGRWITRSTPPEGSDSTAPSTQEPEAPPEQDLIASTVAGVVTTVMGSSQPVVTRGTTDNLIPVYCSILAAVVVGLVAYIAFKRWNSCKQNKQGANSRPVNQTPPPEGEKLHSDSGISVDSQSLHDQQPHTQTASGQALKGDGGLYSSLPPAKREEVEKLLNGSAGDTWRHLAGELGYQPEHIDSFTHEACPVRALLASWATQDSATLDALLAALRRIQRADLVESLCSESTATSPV

commercial mature NGF (Enzo Products for Science, Farmingdale, N.Y.) (ligand), sequence (P01139 122-241): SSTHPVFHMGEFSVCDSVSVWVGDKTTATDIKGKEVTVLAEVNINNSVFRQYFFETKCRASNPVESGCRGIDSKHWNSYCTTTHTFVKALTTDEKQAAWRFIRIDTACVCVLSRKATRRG
plasmin, sequence (P00747 20-580): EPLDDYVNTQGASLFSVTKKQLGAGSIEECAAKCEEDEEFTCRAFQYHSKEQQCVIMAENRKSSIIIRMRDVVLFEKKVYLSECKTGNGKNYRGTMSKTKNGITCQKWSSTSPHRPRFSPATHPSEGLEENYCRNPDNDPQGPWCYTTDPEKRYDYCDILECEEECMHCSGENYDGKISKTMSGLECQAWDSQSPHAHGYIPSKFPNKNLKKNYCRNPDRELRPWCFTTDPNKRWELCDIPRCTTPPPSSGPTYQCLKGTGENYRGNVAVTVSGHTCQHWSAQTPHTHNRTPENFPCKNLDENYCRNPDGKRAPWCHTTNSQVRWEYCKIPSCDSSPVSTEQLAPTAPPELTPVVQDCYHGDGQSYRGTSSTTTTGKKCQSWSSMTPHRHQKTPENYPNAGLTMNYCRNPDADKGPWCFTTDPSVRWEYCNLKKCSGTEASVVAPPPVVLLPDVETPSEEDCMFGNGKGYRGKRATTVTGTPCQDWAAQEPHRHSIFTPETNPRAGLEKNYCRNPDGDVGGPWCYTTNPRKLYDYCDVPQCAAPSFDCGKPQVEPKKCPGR
plasmin, sequence (P00747 581-810): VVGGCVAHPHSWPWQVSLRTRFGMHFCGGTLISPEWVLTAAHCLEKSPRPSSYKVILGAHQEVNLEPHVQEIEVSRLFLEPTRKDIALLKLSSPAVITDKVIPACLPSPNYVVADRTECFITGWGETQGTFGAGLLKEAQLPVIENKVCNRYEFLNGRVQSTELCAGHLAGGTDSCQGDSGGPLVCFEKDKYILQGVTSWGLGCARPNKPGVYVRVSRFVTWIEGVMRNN
TrkA on 293 cells, sequence (P04629 33-796): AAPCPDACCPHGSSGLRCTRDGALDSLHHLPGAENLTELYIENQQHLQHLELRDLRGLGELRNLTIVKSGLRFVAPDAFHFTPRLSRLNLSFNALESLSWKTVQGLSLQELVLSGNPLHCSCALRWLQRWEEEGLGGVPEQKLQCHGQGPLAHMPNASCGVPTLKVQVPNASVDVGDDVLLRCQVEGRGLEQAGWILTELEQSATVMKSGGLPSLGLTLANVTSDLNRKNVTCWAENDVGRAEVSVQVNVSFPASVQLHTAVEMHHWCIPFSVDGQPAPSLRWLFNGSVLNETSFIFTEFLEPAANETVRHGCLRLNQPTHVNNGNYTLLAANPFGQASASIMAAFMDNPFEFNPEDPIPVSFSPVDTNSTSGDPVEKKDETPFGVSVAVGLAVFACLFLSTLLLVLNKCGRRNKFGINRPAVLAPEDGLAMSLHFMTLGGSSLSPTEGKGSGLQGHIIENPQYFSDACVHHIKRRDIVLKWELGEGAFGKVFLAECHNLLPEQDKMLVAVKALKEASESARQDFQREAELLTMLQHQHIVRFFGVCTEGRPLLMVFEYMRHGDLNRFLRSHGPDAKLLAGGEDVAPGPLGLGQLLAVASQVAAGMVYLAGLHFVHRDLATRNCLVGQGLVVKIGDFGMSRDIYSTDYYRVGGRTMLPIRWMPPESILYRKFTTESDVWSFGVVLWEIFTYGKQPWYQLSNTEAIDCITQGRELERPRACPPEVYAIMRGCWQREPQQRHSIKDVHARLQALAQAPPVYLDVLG
commercial mature NGF (Enzo Products for Science, Farmingdale, N.Y.) (ligand; other documents disagree on this pair), sequence (P01139 122-241): as the sequence (P01139 122-241) above

In data set [1], “His-tagged native NGF, completely processed to the mature form of 13.5 kDa (from UniProt P01139 122-241) (ligand)” registered a trk A autophosphorylation of 0.2 nM. The PC12 cell neuritogenesis in data set [2] was found to be 0.1 nM.

The substance “commercial mature NGF (Enzo Products for Science, Farmingdale, N.Y.) (ligand; other documents disagree on this pair)” yielded an IC50 with TrkA on 293 cells of 1.2 nM. This counts as single-digit nanomolar.

On to plasmin, for which the “proteolytic cleavage, Western blot” value in data set [3] is listed as “Pro-NGF was cleaved by plasmin to a 13 kD form”. For the same substance, in data set [4], the “proteolytic cleavage in endothelial media, Western blot” value was “In endothelial media, only plasmin and MMP-7 appeared to cleave the large proform”.

The substance “commercial mature NGF (Enzo Products for Science, Farmingdale, N.Y.) (ligand)” showed a TUNEL positive cells at 18 h (% TUNEL positive cells at 2 nM) in data set [5] of 20. The trk A autophosphorylation in data set [1] came to 0.2 nM. In addition, the PC12 cell neuritogenesis in data set [2] was found to be 0.1 nM. This substance yielded an IC50 in the data set with p75NTR on A875 cells of 1 nM.

For orientation: IC50 means the concentration at which inhibition is half-maximal.
